Key:
[1] = tested on: LAP-mIL-4 fusion protein with aggrecanase cleavage site B05 (HNEFRQRETYMVF)
Target sequence (chain, as listed by the source): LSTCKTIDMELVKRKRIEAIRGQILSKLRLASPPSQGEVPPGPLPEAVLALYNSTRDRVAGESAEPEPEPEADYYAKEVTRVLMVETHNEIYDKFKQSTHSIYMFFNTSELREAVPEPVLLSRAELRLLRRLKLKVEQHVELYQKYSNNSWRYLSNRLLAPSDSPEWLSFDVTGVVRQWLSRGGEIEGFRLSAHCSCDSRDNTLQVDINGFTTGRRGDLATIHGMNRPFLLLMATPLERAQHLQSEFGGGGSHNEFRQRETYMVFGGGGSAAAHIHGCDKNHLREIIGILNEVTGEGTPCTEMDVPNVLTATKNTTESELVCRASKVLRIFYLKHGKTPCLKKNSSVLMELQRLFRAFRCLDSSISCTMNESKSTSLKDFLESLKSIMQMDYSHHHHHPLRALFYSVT

[2] = tested on: LAP-mIL-4 fusion protein with aggrecanase cleavage site B06 (DVQEFRGVTAVIR)
Target sequence (chain, as listed by the source): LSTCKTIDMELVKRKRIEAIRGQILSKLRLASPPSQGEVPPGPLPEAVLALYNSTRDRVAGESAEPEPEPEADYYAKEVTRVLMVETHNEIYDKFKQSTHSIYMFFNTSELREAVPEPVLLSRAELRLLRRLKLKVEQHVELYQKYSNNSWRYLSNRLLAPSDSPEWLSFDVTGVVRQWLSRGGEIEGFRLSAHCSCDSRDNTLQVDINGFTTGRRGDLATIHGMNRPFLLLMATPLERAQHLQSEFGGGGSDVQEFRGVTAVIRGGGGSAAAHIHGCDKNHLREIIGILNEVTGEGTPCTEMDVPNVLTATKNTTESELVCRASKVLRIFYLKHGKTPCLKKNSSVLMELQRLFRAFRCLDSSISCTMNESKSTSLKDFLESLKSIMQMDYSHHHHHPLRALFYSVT

B1: ADAMTS-4 (aggrecanase-1), recombinant (enzyme, UniProt O75173 213-837, looked up, species assumed)
A disintegrin and metalloproteinase with thrombospondin motifs 4: FASLSRFVETLVVADDKMAAFHGAGLKRYLLTVMAAAAKAFKHPSIRNPVSLVVTRLVILGSGEEGPQVGPSAAQTLRSFCAWQRGLNTPEDSDPDHFDTAILFTRQDLCGVSTCDTLGMADVGTVCDPARSCAIVEDDGLQSAFTAAHELGHVFNMLHDNSKPCISLNGPLSTSRHVMAPVMAHVDPEEPWSPCSARFITDFLDNGYGHCLLDKPEAPLHLPVTFPGKDYDADRQCQLTFGPDSRHCPQLPPPCAALWCSGHLNGHAMCQTKHSPWADGTPCGPAQACMGGRCLHMDQLQDFNIPQAGGWGPWGPWGDCSRTCGGGVQFSSRDCTRPVPRNGGKYCEGRRTRFRSCNTEDCPTGSALTFREEQCAAYNHRTDLFKSFPGPMDWVPRYTGVAPQDQCKLTCQAQALGYYYVLEPRVVDGTPCSPDSSSVCVQGRCIHAGCDRIIGSKKKFDKCMVCGGDGSGCSKQSGSFRKFRYGYNNVVTIPAGATHILVRQQGNPGHRSIYLALKLPDGSYALNGEYTLMPSPTDVVLPGAVSLRYSGATAASETLSGHGPLAQPLTLQVLVAGNPQDTRLRYSFFVPRPTPSTPRPTPQDWLHRRAQILEILRRRPWAGRK
- cleavage of the fusion protein in 293T supernatant after overnight incubation at 37 C, Western blot probed with anti-IL-4 antibody (LAP-MMP IL-4): LAP-MMP IL-4 is only cleaved by MMP-1 (not cleaved by aggrecanase)
- cleavage of the fusion protein in 293T supernatant after overnight incubation at 37 C, Western blot probed with anti-IL-4 antibody [1]: the Agg1 and Agg2 constructs are cleaved by ADAMTS-4
- cleavage of the fusion protein in 293T supernatant after overnight incubation at 37 C, Western blot probed with anti-IL-4 antibody [2]: the Agg1 and Agg2 constructs are cleaved by ADAMTS-4

Reference: US8357515
